What all share (format): binding
Assay [1] has as its target T1, LEF-1 (Mus musculus, UniProt P27782).
T1 construct: the cDNA of LEF-1 for the amino acids 1–99; expressed in transfected cells; host or cells: yeast (two-hybrid, Matchmaker, Clontech)
The experiment in a line: yeast 2-hybrid: interaction of β-catenin mutants with LEF-1. As to conditions: for Interaction With LEF-1, share of wild type β-catenin interaction: yeast 2-hybrid, alanine mutants. The method, then: (§1) The mutagenesis of β-catenin in the armadillo repeats 3–8 was carried out by means of the “mutagenesis kit” of the company Clontech according to the producer's record and the mutants were checked by sequencing (FIG. 5). In all mutants the original amino acid was substituted by alanine. For analyzing the interactions the cDNA of human β-catenin (armadillo repeat 3 up to the C-terminal end of the protein) coding for the amino acids Leu218–Leu7 μl or its mutants was cloned into the fusion vector for the activation domain of Gal-4 (pGAD424, Clontech). The cDNA for the binding domains of the interaction partners was cloned into the Lex-A fusion vector BTM 116. To this end, the cDNA of LEF-1 for the amino acids 1–99, conductin for the amino acids Ala342–ARG465; of human APC for the amino acids His1012–Glu1215 (APC 15 amino acid repeats) and for the amino acids Ser1259Asp 1400 (APC 20 amino acid repeats) and E-cadherin for the amino acids Gin773–Asp884 (cytoplasmatic domain) were amplified with the respective primers PCR. The interaction of the Lex-A hybrids with β-catenin and its mutants was quantified by means of the β-galactosidase reporter activity in the yeast 2-hybrid system (report: “Matchmaker”. Clontech) (Tab. 2 and FIG. 6).

Assay [2] concerns the target T2, APC (20 amino acid repeats) (Homo sapiens, UniProt P25054).
T2 construct: for the amino acids Ser1259Asp 1400 (APC 20 amino acid repeats); expressed in transfected cells; host or cells: yeast (two-hybrid, Matchmaker, Clontech)
T2 sequence (P25054 1253-1394 limits assumed): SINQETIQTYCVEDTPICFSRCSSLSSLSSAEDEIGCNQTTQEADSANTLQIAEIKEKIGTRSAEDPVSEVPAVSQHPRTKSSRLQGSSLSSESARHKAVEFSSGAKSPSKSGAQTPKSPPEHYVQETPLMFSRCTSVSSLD
The experiment in a line: yeast 2-hybrid: interaction of β-catenin mutants with APC 20 amino acid repeats. As to conditions: for Interaction With APC-20, share of wild type β-catenin interaction: yeast 2-hybrid, alanine mutants. As to the method: as §1

Assay [3] concerns the target T3, APC (15 amino acid repeats) (Homo sapiens, UniProt P25054).
T3 construct: of human APC for the amino acids His1012–Glu1215 (APC 15 amino acid repeats); expressed in transfected cells; host or cells: yeast (two-hybrid, Matchmaker, Clontech)
T3 sequence (P25054 1006-1209 limits assumed): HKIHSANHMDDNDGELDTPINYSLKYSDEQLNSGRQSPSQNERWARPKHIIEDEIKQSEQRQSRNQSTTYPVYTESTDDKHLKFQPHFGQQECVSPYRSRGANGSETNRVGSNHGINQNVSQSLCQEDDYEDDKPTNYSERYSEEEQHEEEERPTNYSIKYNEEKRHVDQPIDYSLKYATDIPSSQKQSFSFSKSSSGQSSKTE
The assay is described as follows: yeast 2-hybrid: interaction of β-catenin mutants with APC 15 amino acid repeats. As to conditions: yeast 2-hybrid, alanine mutants. As to the method: as §1

In assay [4] the target is T4, conductin (Mus musculus, UniProt O88566).
T4 construct: conductin for the amino acids Ala342–ARG465; expressed in transfected cells; host or cells: yeast (two-hybrid, Matchmaker, Clontech)
T4 sequence (O88566 343-465 limits assumed): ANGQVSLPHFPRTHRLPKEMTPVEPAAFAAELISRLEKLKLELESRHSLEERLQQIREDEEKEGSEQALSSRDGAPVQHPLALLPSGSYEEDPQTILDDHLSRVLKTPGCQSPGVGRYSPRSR
The experiment in a line: yeast 2-hybrid: interaction of β-catenin mutants with conductin. As to conditions: for Interaction With Conductin, share of wild type β-catenin interaction: yeast 2-hybrid, alanine mutants; for interaction with conductin: β-catenin mutation, in words. The method, then: as §1

Assay [5] addresses T5, E-cadherin (Mus musculus, UniProt P09803).
T5 construct: E-cadherin for the amino acids Gin773–Asp884 (cytoplasmatic domain); expressed in transfected cells; host or cells: yeast (two-hybrid, Matchmaker, Clontech)
The experiment in a line: yeast 2-hybrid: interaction of β-catenin mutants with E-cadherin. The settings on record: alanine mutants. The method, then:
as §1

4 molecules from patent publication US7067474B1, “Agents for treating human illnesses based on β-catenin, and the production and use thereof” (Max-Delbruck-Centrum fur Molekulare Medizin, priority 1998, dated 2006) can be followed below.

“Also recorded” adds a separate entry of the source.

T5 sequence (P09803 773-884): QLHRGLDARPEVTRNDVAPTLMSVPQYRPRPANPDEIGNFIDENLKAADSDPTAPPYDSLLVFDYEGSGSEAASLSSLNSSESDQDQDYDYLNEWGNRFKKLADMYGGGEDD
T1 sequence (P27782 1-99): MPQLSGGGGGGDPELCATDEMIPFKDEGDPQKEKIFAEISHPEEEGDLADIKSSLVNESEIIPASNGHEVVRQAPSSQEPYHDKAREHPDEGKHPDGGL

B1: His 470: human β-catenin mutant, His 470 substituted by alanine (arm 8) (protein)
chain: LHNLSHHREGLLAIFKSGGIPALVKMLGSPVDSVLFYAITTLHNLLLHQEGAKMAVRLAGGLQKMVALLNKTNVKFLAITTDCLQILAYGNQESKLIILASGGPQALVNIMRTYTYEKLLWTTSRVLKVLSVCSSNKPAIVEAGGMQALGLHLTDPSQRLVQNCLWTLRNLSDAATKQEGMEGLLGTLVQLLGSDDINVVTCAAGILSNLTCNNYKNKMMVCQVGGIEALVRTVLRAGDREDITEPAICALRALTSRHQEAEMAQNAVRLHYGLPVVVKLLHPPSHWPLIKATVGLIRNLALCPANHAPLREQGAIPRLVQLLVRAHQDTQRRTSMGGTQQQFVEGVRMEEIVEGCTGALHILARDVHNRIVIRGLNTIPLFVQLLYSPIENIQRVAAGVLCELAQDKEAAEAIEAEGATAPLTELLHSRNEGVATYAAAVLFRMSEDKPQDYKKRLSVELTSSLFRTEPMAWNETADLGLDIGAQGEPLGYRQDDPSYRSFHSGGYGQDALGMDPMMEHEMGGHHPGADYPVDGLPDLGHAQDLMDGLPPGDSNQLAWFDTDL
modifications: left off: large carriers; small tags and cut ends
As to B1, in assay [1] (β-catenin mutation, in words), the “interaction with LEF-1/TCF-4” value was “blocking the interaction; also recorded: no interaction with LEF-1/TCF-4”. Also, the “Interaction With APC-20, share of wild type β-catenin interaction” value (shortened to “Interaction With APC-20, share”) in assay [2] was 47%. In assay [3], the “Interaction With APC-15, share of wild type β-catenin interaction” value (from here on “Interaction With APC-15, share”) stood at 60%. Further, the “Interaction With Conductin, share of wild type β-catenin interaction” value (“Interaction With Conductin, share” for short) in assay [4] is “— (Interactions marked by — correspond to 60–100% of the wild type interaction)”. Moreover, the “Interaction With E-Cadherin, share of wild type β-catenin interaction” value (“Interaction With E-Cadherin, share” below) in assay [5] is “— (Interactions marked by — correspond to 60–100% of the wild type interaction)”.

B2: Phe 253: human β-catenin mutant, Phe 253 substituted by alanine (arm 3) (protein)
chain: LHNLSHHREGLLAIFKSGGIPALVKMLGSPVDSVLAYAITTLHNLLLHQEGAKMAVRLAGGLQKMVALLNKTNVKFLAITTDCLQILAYGNQESKLIILASGGPQALVNIMRTYTYEKLLWTTSRVLKVLSVCSSNKPAIVEAGGMQALGLHLTDPSQRLVQNCLWTLRNLSDAATKQEGMEGLLGTLVQLLGSDDINVVTCAAGILSNLTCNNYKNKMMVCQVGGIEALVRTVLRAGDREDITEPAICALRHLTSRHQEAEMAQNAVRLHYGLPVVVKLLHPPSHWPLIKATVGLIRNLALCPANHAPLREQGAIPRLVQLLVRAHQDTQRRTSMGGTQQQFVEGVRMEEIVEGCTGALHILARDVHNRIVIRGLNTIPLFVQLLYSPIENIQRVAAGVLCELAQDKEAAEAIEAEGATAPLTELLHSRNEGVATYAAAVLFRMSEDKPQDYKKRLSVELTSSLFRTEPMAWNETADLGLDIGAQGEPLGYRQDDPSYRSFHSGGYGQDALGMDPMMEHEMGGHHPGADYPVDGLPDLGHAQDLMDGLPPGDSNQLAWFDTDL
modifications: left off: large carriers; small tags and cut ends
With B2, in assay [1], the “Interaction With LEF-1, share of wild type β-catenin interaction” value (“Interaction With LEF-1, share” below) is listed as “— (Interactions marked by — correspond to 60–100% of the wild type interaction)”. Also, the “Interaction With APC-20, share” value in assay [2] is reported as 40%. Besides, the “Interaction With APC-15, share” value in assay [3] is “— (Interactions marked by — correspond to 60–100% of the wild type interaction)”. Also, in assay [4], the “Interaction With Conductin, share” value is on record as 17% and the interaction with conductin result was “no interaction with conductin”. Also, in assay [5], the “Interaction With E-Cadherin, share” value was “— (Interactions marked by — correspond to 60–100% of the wild type interaction)”.

B3: Trp 383: human β-catenin mutant, Trp 383 substituted by alanine (arm 6) (protein)
chain: LHNLSHHREGLLAIFKSGGIPALVKMLGSPVDSVLFYAITTLHNLLLHQEGAKMAVRLAGGLQKMVALLNKTNVKFLAITTDCLQILAYGNQESKLIILASGGPQALVNIMRTYTYEKLLWTTSRVLKVLSVCSSNKPAIVEAGGMQALGLHLTDPSQRLVQNCLATLRNLSDAATKQEGMEGLLGTLVQLLGSDDINVVTCAAGILSNLTCNNYKNKMMVCQVGGIEALVRTVLRAGDREDITEPAICALRHLTSRHQEAEMAQNAVRLHYGLPVVVKLLHPPSHWPLIKATVGLIRNLALCPANHAPLREQGAIPRLVQLLVRAHQDTQRRTSMGGTQQQFVEGVRMEEIVEGCTGALHILARDVHNRIVIRGLNTIPLFVQLLYSPIENIQRVAAGVLCELAQDKEAAEAIEAEGATAPLTELLHSRNEGVATYAAAVLFRMSEDKPQDYKKRLSVELTSSLFRTEPMAWNETADLGLDIGAQGEPLGYRQDDPSYRSFHSGGYGQDALGMDPMMEHEMGGHHPGADYPVDGLPDLGHAQDLMDGLPPGDSNQLAWFDTDL
modifications: left off: large carriers; small tags and cut ends
Regarding B3, the “Interaction With LEF-1, share” value in assay [1] is “— (Interactions marked by — correspond to 60–100% of the wild type interaction)”. Further, the “Interaction With APC-20, share” value in assay [2] worked out at 0%. In addition, the “interaction with APC 20aa” value in assay [2] (β-catenin mutation, in words) was “no interaction with APC 20aa”. Also, the “Interaction With APC-15, share” value in assay [3] came to 59%. Besides, the “Interaction With Conductin, share” value in assay [4] is reported as “— (Interactions marked by — correspond to 60–100% of the wild type interaction)”. Moreover, the “Interaction With E-Cadherin, share” value in assay [5] is “— (Interactions marked by — correspond to 60–100% of the wild type interaction)”.

B4: Trp 338: human β-catenin mutant, Trp 338 substituted by alanine (arm 5) (protein)
chain: LHNLSHHREGLLAIFKSGGIPALVKMLGSPVDSVLFYAITTLHNLLLHQEGAKMAVRLAGGLQKMVALLNKTNVKFLAITTDCLQILAYGNQESKLIILASGGPQALVNIMRTYTYEKLLATTSRVLKVLSVCSSNKPAIVEAGGMQALGLHLTDPSQRLVQNCLWTLRNLSDAATKQEGMEGLLGTLVQLLGSDDINVVTCAAGILSNLTCNNYKNKMMVCQVGGIEALVRTVLRAGDREDITEPAICALRHLTSRHQEAEMAQNAVRLHYGLPVVVKLLHPPSHWPLIKATVGLIRNLALCPANHAPLREQGAIPRLVQLLVRAHQDTQRRTSMGGTQQQFVEGVRMEEIVEGCTGALHILARDVHNRIVIRGLNTIPLFVQLLYSPIENIQRVAAGVLCELAQDKEAAEAIEAEGATAPLTELLHSRNEGVATYAAAVLFRMSEDKPQDYKKRLSVELTSSLFRTEPMAWNETADLGLDIGAQGEPLGYRQDDPSYRSFHSGGYGQDALGMDPMMEHEMGGHHPGADYPVDGLPDLGHAQDLMDGLPPGDSNQLAWFDTDL
modifications: left off: large carriers; small tags and cut ends
In the case of B4, in assay [1], the “Interaction With LEF-1, share” value is given as “— (Interactions marked by — correspond to 60–100% of the wild type interaction)”. In addition, in assay [2], the “Interaction With APC-20, share” value is recorded as 55%. Also, the “Interaction With APC-15, share” value in assay [3] is on record as “— (Interactions marked by — correspond to 60–100% of the wild type interaction)”. Also, in assay [4], the “Interaction With Conductin, share” value was determined as 20% and the interaction with conductin entry is listed as “no interaction with conductin”. Further, in assay [5], the “Interaction With E-Cadherin, share” value is reported as “— (Interactions marked by — correspond to 60–100% of the wild type interaction)”.
